Numbering of substitutions follows the chain as printed. “And” between values parts separate entries of the source, which are not always exact repeats. Equal values may be shown once.
Columns and labels:
[1] = molecular target: T1, extracellular domain of human CD73 protein (CD73-ECD), C-terminus polyhistidine-tagged (human, UniProt P21589 27-547); experiment: cell-based or functional assay
T1 sequence: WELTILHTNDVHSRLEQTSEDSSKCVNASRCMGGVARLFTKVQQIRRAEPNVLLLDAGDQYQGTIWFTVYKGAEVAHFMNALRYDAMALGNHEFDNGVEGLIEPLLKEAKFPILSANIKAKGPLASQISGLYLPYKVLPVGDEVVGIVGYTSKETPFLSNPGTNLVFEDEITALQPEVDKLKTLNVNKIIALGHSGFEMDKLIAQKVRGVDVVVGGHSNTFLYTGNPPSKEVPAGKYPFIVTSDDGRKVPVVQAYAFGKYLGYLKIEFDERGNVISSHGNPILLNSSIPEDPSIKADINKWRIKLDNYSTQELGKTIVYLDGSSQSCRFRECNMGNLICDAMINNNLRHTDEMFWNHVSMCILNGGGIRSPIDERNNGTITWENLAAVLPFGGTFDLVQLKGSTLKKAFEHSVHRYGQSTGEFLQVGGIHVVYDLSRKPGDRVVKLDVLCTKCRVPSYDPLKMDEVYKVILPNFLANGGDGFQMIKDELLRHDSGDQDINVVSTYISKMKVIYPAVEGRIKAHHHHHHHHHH

[2] = molecular target: T2, CD73 on the surface of human tumor cells (human, UniProt P21589 27-549); experiment: cell-based or functional assay
T2 sequence (looked up): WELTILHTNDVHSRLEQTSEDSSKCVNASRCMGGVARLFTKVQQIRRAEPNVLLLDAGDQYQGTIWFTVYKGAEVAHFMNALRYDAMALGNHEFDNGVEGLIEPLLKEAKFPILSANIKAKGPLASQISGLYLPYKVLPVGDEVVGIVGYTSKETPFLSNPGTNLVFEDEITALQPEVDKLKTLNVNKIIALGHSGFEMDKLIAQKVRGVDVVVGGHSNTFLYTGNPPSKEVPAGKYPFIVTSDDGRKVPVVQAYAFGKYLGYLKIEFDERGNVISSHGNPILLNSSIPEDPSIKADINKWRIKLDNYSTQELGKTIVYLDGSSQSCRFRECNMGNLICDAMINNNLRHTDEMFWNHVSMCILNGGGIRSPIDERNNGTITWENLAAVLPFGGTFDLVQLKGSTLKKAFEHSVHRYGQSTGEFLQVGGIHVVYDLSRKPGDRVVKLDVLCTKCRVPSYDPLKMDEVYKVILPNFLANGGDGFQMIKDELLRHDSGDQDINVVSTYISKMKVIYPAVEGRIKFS

[3] = molecular target: T2, CD73 on the surface of human tumor cells; experiment: FACS, 5 µg/mL antibody, CD73-high Calu-1 against CD73-low MDA-MB-453 cells
Protocol: 3×10⁵ tumor cells were mixed well with the antibody (final concentration was 5 μg/mL), and then incubated at 4° C. for 1 h. The cells were washed twice with PBS to remove the unbound primary antibody. Then the target cells were incubated with PE-labeled secondary antibody at 4° C. for 30 minutes. The cells were washed twice with PBS to remove the unbound secondary antibody. Finally, the cells were resuspended in 200 μL PBS and the binding rate was detected with a Fluorescence Activated Cell Sorter (FACS).
The chimeric antibody could specifically recognize and bind tumor cells with CD73 high expression.

[4] = molecular target: T2, CD73 on the surface of human tumor cells; experiment: flow cytometry, MDA-MB-231 cells
[5] = molecular target: T1, extracellular domain of human CD73 …; experiment: ELISA, coated CD73-ECD
[6] = molecular target: T2, CD73 on the surface of human tumor cells; experiment: flow cytometry, NCI-H1299 cells
[7] = molecular target: T2, CD73 on the surface of human tumor cells; experiment: FACS, NCI-H1299 cells
Protocol: Alternatively, 100 μL of mAb001c, mAb002c, mAb004c diluted in a 3-fold gradient from 100 nM to 0.046 nM were used as primary antibodies and mixed with 1×10⁵ NCI-H1299 cells suspended in 100 μL RPMI-1640 serum-free medium. Then the obtained solutions were incubated at 4° C. for 1 h, the cells were washed twice with PBS to remove unbound primary antibody, and the target cells were incubated with 200 μL PE-labeled secondary antibody (2 μg/mL) at 4° C. for 30 min. The cells were washed twice with PBS to remove unbound secondary antibody. Finally, the cells were resuspended in 200 μL PBS, and the binding affinities of the test antibodies to CD73 on the cell surface were determined by a flow cytometer.
With reference to the methods in Examples 4-8, the ELISA affinity to CD73-ECD protein, the inhibitory activity on recombinant human CD73 enzyme, the binding affinity to tumor cells, and the inhibitory activity on CD73 enzyme of tumor cells of the above prepared MEDI9447-κ as well as the antibodies mAb001c and mAb002c were detected.

[8] = molecular target: T2, CD73 on the surface of human tumor cells; experiment: cell-based or functional assay; remark: listed apart in the source
[9] = molecular target: T2, CD73 on the surface of human tumor cells; experiment: FACS, MDA-MB-231 cells

B1: mAb004c (antibody, V domains shown)
VH: EVQLQQSGPELVKPGASVKIPCKASGYTFTDYNMDWVKQSHGKSLEWIGDINPNNGGSVYNQKFKGKATLTVDKSSSTAYMELRSLTSEDTAVYYCGRITGTGYWSFDVWGTGTTVTVSP
VL: DIQMTQSPASLSVSVGETVTITCRASENIYSNLAWYQQKQGKSPQLLVYGATNLAEGVPSRFSGSGLGTQYSLKISSLQSEDFGSYYCQHFWGIPWTFGGGTKLEIK
notes: also called human-mouse chimeric antibody mAb004c
IC50, inhibition of AMP hydrolysis by recombinant human CD73 (CellTiter-Glo) [1]: 0.039 nM
IC50, inhibition of CD73 enzyme on Calu-1 cells (AMP hydrolysis) [2]: 0.63 nM
IC50, inhibition of CD73 enzyme on MDA-MB-231 cells (AMP hydrolysis) [2]: 4.16 nM
IC50, inhibition of CD73 enzyme on NCI-H1299 cells (AMP hydrolysis) [2]: 0.385 nM
difference in binding rate (MFI), Calu-1 against MDA-MB-453 [3]: 856 times
EC50 [4]: 2.5 nM
EC50 [5]: 0.038 nM
EC50 [6]: 2.2 nM

B2: mAb002c (antibody, V domains shown)
VH: QVQLQQPGAELVKPGASVRLSCKASGYTLTSYWMHWVKKRPGQGLEWIGEINPSNGRSNYNEKFKSKATLTVDRSSSTVYMQLGSLTSEDSAVYYCARRGVSGNYFDYWGQGTTLTVSS
VL: DIKMTQSPSSMYASLGERVTMTCKASQDINTYLSWFQQKPGKSPKTLIYRSNILVDGVPSRFSGSRSGQDYYLTITSLEYEDMGIYYCLQYDEFPYTFGGGTKLELK
notes: also called human-mouse chimeric antibody mAb002c
EC50 [7]: 0.391 nM
Calu-1 CD73 Enzyme Inhibition IC50 [8]: 0.281 nM
MDA-MB-231 CD73 Enzyme Inhibition IC50 [8]: 0.791 nM
NCI-H1299 CD73 Enzyme Inhibition IC50 [8]: 0.191 nM
IC50, inhibition of AMP hydrolysis by recombinant human CD73 (CellTiter-Glo) [1]: 0.031 nM
difference in binding rate (MFI), Calu-1 against MDA-MB-453 [3]: 978 times
EC50 [4]: 0.36 nM
EC50 [9]: 0.356 nM
EC50 [5]: 0.016 nM
EC50 [6]: 0.39 nM

B3: mAb002c-VH-QG/VK-SG (antibody, V domains shown)
VH: B2 VH with N55Q
VL: B2 VL with D56S
IC50, inhibition of the catalytic function of recombinant human CD73 (CellTiter-Glo) [1]: 0.038 nM and 0.06 nM

B4: mAb002c-VH-QG (antibody, V domains shown)
VH: B2 VH with N55Q
VL: B2 VL
EC50 [4]: 0.43 nM

B5: mAb002c-VK-SG (antibody, V domains shown)
VH: B2 VH
VL: B2 VL with D56S
EC50 [4]: 0.46 nM

B6: mAb002c-VH-NA (antibody, V domains shown)
VH: B2 VH with G56A
VL: B2 VL
EC50 [4]: 0.43 nM

B7: mAb001c (antibody, V domains shown)
VH: QVQLQQSGPELVKPGASVRISCKTSGYTFTNYYIYWVKQRPGQGLEWIGWIYPGNLNIKYNEKFKGKSTLTADKSSSTAFMQLSSLTSEDSAVYFCARDDNYAWFAYWGQGTLVTVSS
VL: DIVMTQSHKFMSTSIGDRVSITCKASQDVSTAVAWYQQKPGQSPKLLIYWTNTRHTGVPDRFTGNTSGTEHTLTISSVQAEDLALYYCQQHYSTPFTFGSGTTLEIK
notes: also called human-mouse chimeric antibody mAb001c
EC50 [7]: 1.03 nM
Calu-1 CD73 Enzyme Inhibition IC50 [8]: 0.506 nM
MDA-MB-231 CD73 Enzyme Inhibition IC50 [8]: 1.86 nM
NCI-H1299 CD73 Enzyme Inhibition IC50 [8]: 0.236 nM
IC50, inhibition of AMP hydrolysis by recombinant human CD73 (CellTiter-Glo) [1]: 0.025 nM
difference in binding rate (MFI), Calu-1 against MDA-MB-453 [3]: 250 times
EC50 [4]: 0.7 nM
EC50 [9]: 0.712 nM
EC50 [5]: 0.024 nM
EC50 [6]: 1 nM

B8: mAb001c-VK-SGS (antibody, V domains shown)
VH: B7 VH
VL: B7 VL with N65S, T66G
IC50, inhibition of the catalytic function of recombinant human CD73 (CellTiter-Glo) [1]: 0.02 nM
EC50 [4]: 1.39 nM

B9: MEDI9447-κ (antibody, V domains shown)
VH: EVQLLESGGGLVQPGGSLRLSCAASGFTFSSYAYSWVRQAPGKGLEWVSAISGSGGRTYYADSVKGRFTISRDNSKNTLYLQMNSLRAEDTAVYYCARLGYGRVDEWGRGTLVTVSS
VL: QSVLTQPPSASGTPGQRVTISCSGSLSNIGRNPVNWYQQLPGTAPKLLIYLDNLRLSGVPDRFSGSKSGTSASLAISGLQSEDEADYYCATWDDSHPGWTFGGGTKLTVL
EC50 [7]: 1.27 nM
Calu-1 CD73 Enzyme Inhibition IC50 [8]: 0.527 nM
MDA-MB-231 CD73 Enzyme Inhibition IC50 [8]: 1.1 nM
NCI-H1299 CD73 Enzyme Inhibition IC50 [8]: 0.388 nM
EC50 [9]: 0.752 nM

B10: Hu001c-22 (antibody, V domains shown)
VH: QVQLVQSGAEVKKPGASVKVSCKASGYTFTNYYIYWVKQRPGQRLEWIGWIYPGNLNIKYNEKFKGRVTITADKSASTAYMELSSLRSEDTAVYYCARDDNYAWFAYWGQGTLVTVSS
VL: DIQMTQSPSSLSASVGDRVTITCKASQDVSTAVAWYQQKPGKAPKLLIYWTNTRHTGVPSRFSGSGSGTDHTLTISSLQPEDFATYYCQQHYSTPFTFGQGTKLEIK
notes: Humanized
binding result [4]: binds
binding result [5]: binds

B11: Hu001c-24 (antibody, V domains shown)
VH: B10 VH with A24T, R44G
VL: B10 VL
notes: Humanized
binding result [4]: binds
binding result [5]: binds

B12: Hu001c-23 (antibody, V domains shown)
VH: B10 VH with R44G
VL: B10 VL
notes: Humanized
binding result [4]: binds
binding result [5]: binds

B13: Hu001c-25 (antibody, V domains shown)
VH: B10 VH with K38R, R40A
VL: B10 VL with A43S
notes: Humanized
binding result [4]: binds
binding result [5]: binds

Reference: US20210024646A1 (FUDAN UNIVERSITY, published 2021)
